{
  "source": "patent US6461815",
  "key": {"[1]": {"system": "30S ribosomal subunit (mRNA-programmed, activated; ribonucleoprotein)", "assay": "filter", "details": "CMN buffer 20 mM MgCl2, pH 7.2"}, "[2]": {"system": "30S ribosomal subunit (mRNA-programmed, activated; ribonucleoprotein)", "assay": "FP", "details": "mnm5s2U34 and other native modifications; nitrocellulose filter binding (method is filter); poly(A)-programmed; CMN buffer 20 mM MgCl2, 100 mM NH4Cl, pH 7.2, 37 C then ice"}},
  "data": [
    {"substance": "UCAGACUUUUAAUCUGA [ASLLys3(SUU), s2U34 anticodon stem-loop]", "values": [
      {"measurement": "Kd", "setting": "[1]; s2U at tRNA position 34, poly(A)-programmed, also bound poly(AG)-programmed 30S", "value": 176, "unit": "nM"}
    ]},
    {"substance": "E. coli tRNALys(SUU), native fully modified", "values": [
      {"measurement": "Kd", "setting": "[2]", "value": 70, "unit": "nM"}
    ]},
    {"substance": "yeast tRNAPhe(GmAA), native", "values": [
      {"measurement": "Kd", "setting": "[1]; Gm34 and other native modifications, poly(U)-programmed", "value": 103, "unit": "nM"}
    ]},
    {"substance": "yeast ASLPhe(GAA), unmodified anticodon stem-loop", "values": [
      {"measurement": "Kd", "setting": "[1]; poly(U)-programmed", "value": 136, "unit": "nM"}
    ]}
  ]
}
